# Measured values taken from the nanobody polyreactivity screen of Harvey et al. (2022).
# Test: yeast display, Sf9 membrane polyspecificity reagent, FACS + sequencing; frameworks hold sequencing errors
# Method in brief: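 Nanobodies came from a synthetic yeast display library in Saccharomyces cerevisiae BJ5465, induced with galactose for 36–48 hours and stained for 1 hour at 4 °C with 10% biotinylated, detergent-solubilized Sf9 membrane reagent. Cells were enriched on streptavidin microbeads and then FACS-sorted, with low and high (top ~1%) gates set on anti-HA fluorescence for expression and streptavidin fluorescence for reagent binding. Each polyreactivity label reflects the gate a clone came from. Genes were amplified by colony PCR, sequenced by MiSeq 2 × 250 and filtered by CDR length.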
row,Sequence,polyreactivity (PSR sort gate)
1,QVQLVESGGGLVQAGGSLRLSCAASGSTFVNYAMVWYRQAPGKERELVAAITRGGYTYYADSVKGRFTISRDNAKNTVYLEMNSLKPEDTAFYYCNAAVSYPKYPYVSPGVPSYDYWGQGTQVSVSS,low polyreactivity
2,QVQLVESGGGLVQAGGSLRLSCAASGIIFINYVMGWYRQAPGKERELVAAISIGGGRTYYADSVKGRFTISRDNAKNTVYLQMNSLKPEDTAVYYCAAEYFYGYKDVYDYWGQGTQVTVSS,high polyreactivity
3,QVQRVESGGGLVQAGGSLRLSCAASGSTFSIYAMGLYRQEPGKERELVAAISFSDDSTYYADSVKGRFTISRDNAKNTVYLQMNSLNPEDTEVYYCAAEGYWGEPFDYDGALEYWGQGTQVTVSS,high polyreactivity
4,QVQLVESGGGLVQAGGSLRLSCAASGSIFSKYAMGWYRQAPGKERELVAAITSSGGSTYYADSVKGRFTISRDNAKNTVYLQMNSLKPEDNAVYYCAAGGRSVRYNYWGQGTQVTVSS,high polyreactivity
5,QVQLVESGGGLVQAGGSLRLSCAASGSIFLIYARGSYRQAPGKERELVAAISGRVGSTYYADSVKGRFTISRDNAINTVYLQMNSLKPEDTAVYYCAARNSYGNWRYYYWGQGTQVTVSS,high polyreactivity
6,QVQLVESGGGLVQAGCSLRLSCAASGSTFWFNGMGWYRQAPGKERELVAVITFSTGSTSYADSVKGRFTISRDDAKNTVYLQMNSLKAEDTAGYYCAAEYVIYYCFEWLDLDYWGQGTQVTVSS,high polyreactivity
7,QVQLVESGGGLVQTGGSLRLSCAASGFIFGPYVMGWYRQAPRKERELFAAISSDGSTTYADSVKGRFTISRDNEKNTVYLQMNSLKPEDTAVYYFAAEDQQNGYDYWGQGTQVTVSS,low polyreactivity
8,QVQLVESGGGLVQAGGSLRLSCAASGITFDSYAMGWYRQAPGKERELVATISRSGTTTYYADSVKGRFTISRDNAKNTVYLQMNSLKPEDTAVYYCNTLRAYWTYHFYGAVRDGYDYWGQGTQVTVSS,low polyreactivity
9,QVQLVESGGGLVQAGGSLRLICDASGIIFFPYAMGWYRQAPGKEREFVAAIRATGDNTYYADSVKGRFTISRDNAKNTVYLQMNSLKPEDTAVYYCAADRGTYQVDYWGQGTQVTVSS,low polyreactivity
10,QVQLVESGGGLVQAGGSLRLSCASSGSIFYYTEIGWYRQAPGKERELVAAISWGDGITYYADSVKGRFTISRDYAKNTVSLLMNSLKPEDTAFYYCAVDYYYLPFDYWGQGTQGTVSS,high polyreactivity
11,QVQLVESGGGLVQAGGSLRLSCAASGSIFYYYAAMGWYRQAPGKERELVAAIDSSDGTTYYADSVKGRFTISRDNAKNTVYLQMNSLKPEDTAVYYCAAETVQEFEYWGQGTQVTVSS,high polyreactivity
12,QVQLVESGGGLVQAGGSLRLSCAASGSTFDGNAMGWYRQAPGKERELVAAITYTTSSTYYADSVKGRFTISRDNAKNTVYLQMNSLKPEDTAVYYCAADASYLPYPLPGTEYEYWGQGTQVTVSS,low polyreactivity
13,QVQLVESGGCLVQAGGSLRLSCAASGLTFAENAMGWYREAPGKERELVAAISASGGSTYYADSVKGRFTSSRDNAKNTVYLQMNSLKPEDTAVYYCATRVAFLWPRRDYDYWGQGTQVNVSS,low polyreactivity
14,QVQLVESGGVLVQAGGSLRLSSAASGGTFWYYAMGMYRQEPGKERELVASISRGGSTNYADSVKGRFTISRDKAKHTVDLQMNRLKPEDTAVYYCIAGLRVGPRRYVDYEYDYWGQGSQVTVSS,low polyreactivity
15,QVQLVESGGGLVQEGGSLRLSCAASGSILAGYAMGWYRQPPRKERELVDDITSGGDTYYADSVKGRFTISRDNAKNTVYLQMKSLKPEDTAVYYCNAVYEGRYEYAYYYRYDYWGQGTQVTVSS,high polyreactivity
16,QVQLEESGGGLVQAGGSLRLSCAASGSTFEVYAMGWYRQAPGKERELVAVINVSDGSTYYADSVKGRFTISRDYAKNTVYLQMNSMKPEDTAVYYCADYLYNRPYQLTGYYDGYGYWGQGTQVTVSS,low polyreactivity
17,QVQLVESGGGLVQAGCSLRLSCAASGSTFRSYAMGWYRQAPGKERELVASISGDGDSTYYADSVKGRFTISRDNAKNTVYLQMNSLKPEDTAVYYCNKGLHNGEVDYDYWGQGTQVTVSS,low polyreactivity
18,QVQLVESGGGLVQAGGGLRLSCAASGRIFFYAMGWYRQAPGKQRELVAAISWSGGSTYYADSVKGRFTISRDNAKNTVYLQMNSLKPEDTAVYYCAADYEGWGYDYRGDYWGQGTQLTVSS,low polyreactivity
19,QVQLEESGGGLVQAGGSLRLSCAASGSIFGYYAMGWYRKATGKEREFVADINSRDGGTYYADSVKGRFTISRDNAKNTVYLQMNSLKPEDTAVYYCAAPYYAAWVAVAIEYDYWGQGTQVTVSS,low polyreactivity
20,QVQLVESGGGLVQAGGSLRLSCAASGFIFYSNAMGWYRQAPGKERELVAAISRGGGSTYYADSVKGRITISRDNAKNTVYLQMNSLIPVDTAVYYCAKRRLSPQDDYWGQGTQVTVSS,high polyreactivity
21,QVQLVESGGGLVLAGRSLRLICAASGSIFVYNAMGWYRQAPGKERELVAAISWSGGRTYYADSVKGRFTISRDNAKNTVYLQMNSLKPEDTAVYYCAALYTLRGYYYGTEYDYWGQGTQVTVSS,high polyreactivity
22,QVQLVESGGGLVQAGGSLRLSCAASASTFYTKVMGWYRPAPGKERELVAAISSSGSRTYYADSVKGRFTISRDNAKNTVYLQMNSLKPEDTAVYYCNAYYRLEPDDGDYDYWGQGTQVTVSS,high polyreactivity

row,Sequence,polyreactivity (PSR sort gate)
1,QVQLVESRGGLVQVGGSLRLSCAASGRTFGRYAMGWYRQAPGNERELVAAINSVARTNYADSVKGRFTISRDNAKNTVYLQMNSLKPEDSAVYYCAARRRGSVGVGYAYPYNYWGQGTQVTVSS,high polyreactivity
2,QVQLVESGGGLVQAGGSLRLSCAASGFTFYTYAMGWYRQAPGKERELVAAITGSGGRTYYADSVKGRFTISRDNAKNTVYLQMNSLKPEDTAVYYCAALYVYRPRTPYGYWGQGTQVTVSS,high polyreactivity
3,QVQLVESGGGLVQAGGSLRLSCAASGFTFQYSAMGWSRQAPGKERDVVAAIRSNGGSTYYADSVKGRFTISRDNAKNTVYLQMNSLKPEDTAVYYSAARAYKTYDWGQGTQVTVSS,high polyreactivity
4,QVQLVESGGGLVQAGGSLRLRCASSGRTFRYNAMGWYRQAPGKERELVATISSSGGSTSYADSVKGRFTISRDNAKKTVYLQMNSLKPEDTAVYYCNKRRLVAAGNGMDSWGQGTQVTVSS,low polyreactivity
5,QVQLVESGGGLVQAGGSLRLSCAASGGIFAPYAMGWYRQAPGKERELVADITSDGGSTYYADSVKGRFTISRDNAKNTVYLQMNSLKPEDTAVYYCAAEQRYCWWGHPGDYWGQGTQVTVSS,low polyreactivity
6,QVQLVESGGGLVQAGGSLRLSCAASGRTFGSYGMGWYRQAPGKERELVAAISRSVGSTYYADSVKGRFTISRDNAKITVYLQMNSLKPEDTAVYYCNTVDRRRYAGHYYWGQGTQVTVSS,high polyreactivity
7,QVQLVESGGGLVQAGGSLRLTCAASGSTFFYYAMVWYIHAPGKERELVAAITVRGTSTYYADSVKGRFTISRDIAKNTVYLQMNSLKPEDTAVYYCNTLQPYLYDYWGQGTQVTVSS,high polyreactivity
8,QVQLVESGGGLVQAGGSLRLSCAASGIIFFPYAMVWYRQAPGKEREFVAAITSRGGSTYYADSVKGRFTISRDNAKNTVYLQMNSLNPEDTAVYYFAADGWLWSFTGDGWWFDYWGQGTQVTVSS,low polyreactivity
9,QVHLVESGGGLVQAGGSLRLSCAASGSNYSYYGMGWYRQAPGKERELVAAITDGDGTNYADSVKGRFTISRDNAKNTVYLQMNSLIPEDTAVYYCNRDFWYGVSPGREFYLYDYWGQGTLVTVSS,low polyreactivity
10,QVQLVESGGGLVQAGGSLRLSCAASGSTFPYNAMGSYRQAPGKERELVAAISSSGGRTYYADSVKGRFTISRDTAKNTVYLQMNSLKPEDTAVYYCNAAYYYTYGYWGQGTQVTVSS,high polyreactivity
11,QVQLVESGGGLVQAGGSLRLSCAASGSYLRYYAMGWYRQAAGKERELVAAISRSVTNTYYADSVKGRFTISRDYAKNTVYLQMNSLKPEDTAVDYCARVQYVRNVQYRYGGWYTRYYWGQGTQVTVSS,high polyreactivity
12,QVQLVESGGGLVQAGGSLRLSSAASGSIFDSNALGWYRQARGKERELVAAISLSGGSTYYADSVKGRFTISRDNAKNTVYLQMKSLKPEDTAVYYCAKDGWYEYYWGQGTQVTVSS,low polyreactivity
13,QVQLVESGGGLVQAGRSLRLSCAASGLTFLYYAMGWYRHAPAKEMEFVAANSNRDGSTYYADSVKGRFTISRDNAKNTVYLQMNSLKPEDTAGYYCYADGYVDYCFLKYRFEFDYWGQGTQVTVSS,low polyreactivity
14,QVQLVESAGGLVQAGGSLRLSCAASARTFGAYAMGWYRQAPGNERELVATITVSGGSTYYADSVKGRFTISRENAKNTVYLPMNSLKPEDTAVYYCAAAYDWWQFYSWTIAYDYWGQGTQVTVSS,low polyreactivity
15,QVQLVESGGGLVQAGGSLRLSCAASGSIFINNAMGWYRQATGKERELVSAIRRGDSTTYADSVKGRFTISRDNAKNTVYLQMNSLKPEDTAVYYCATSPWWYGYAAYGMDYWGQGTQVTVSS,low polyreactivity
16,QVQLVESGGGLVQEGGSLRLSCAPSGFIFRRNAMGAYRQAPGKERELVAAITKSGGSTYYADSVKGRFTISRDNAKNTVYLQMNSLKPEDTAVYYCAAPTWTRSSFDYWGQGTQVTVSS,high polyreactivity
17,QVQHVESGGGLVQAGGSLRLSCAASGYTFPLYAMGWYRQAPGKEREFVAAISKRSGTTYYADSVKGRFTISRDNAKNTVYLQMNSLKPEDTAVYYCNAGYSVYNQRFGYWGQGTQVTVSS,high polyreactivity
18,QVQLVESGGGLVQAGGSLRLSCAASGRTFFYYTMGWYRQAPGKERELVAAITGSGTRTYYADSVKGRFTISRDNAKNTVYYQMNSLKPEDTAVYYCAAGYSDFSGQQVYYWGQGTQVTVSS,high polyreactivity
19,QVQLLESGGGLVQAGGSLRLSCAASGSIFRGYAMGWYRKAPGKERELVAAINWSGSSTYYADSVKGRFTISRDNAKKTVYLQMNSLKPEDTAVYYCARVYYNRNLGGDYWGQGTQVTVSS,low polyreactivity
20,QVQLVESGGGLVQAGGSLRLSCAASGSIFTYYAMGWYRQAPGKERELVDAITWDDDGTYYADSVKGRFTISRDNAKNTVYLQMNSLKPEDTAVYYCAADDGDPYDYWGQGSQVTVSS,low polyreactivity
21,QVQLVESGGGLVQAGGSLRLSCAASGSIFIRYVMGWYRQAPGKERELVAAITGSGSRTYYADSVKGRFTISRDNAKNTVYLQMNSLKPEDTAVYYCAADWTKSRRYYWGQGTQVTVSS,high polyreactivity
